Columns and labels:
Format in all cases: biochemical
[1] = CgtB activity assay (capillary electrophoresis), acceptor GM2-FCHASE; conditions: for Relative activity (%): GM2-FCHASE at 0.5 mM, reference (100%) GM2-FCHASE for CgtBOH4384 and CgtB11168, GA2-FCHASE for CgtBHS:10, average of three experiments; for Specific Activity (mU/mg) on a given FCHASE-labeled acceptor: purified enzyme, 1 mM GM2-FCHASE
Experimental: (§1) The oligosaccharide acceptors and the interferon alpha 2b (IFNα2b) peptide (VGVTETP, corresponding to positions 103-109 of the mature IFNα2b protein) were labeled with FCHASE as previously described (Wakarchuk, W. et al., J Biol. Chem. 271:19166-19173 (1996)). IFNα2b-FCHASE was purified by reverse-phase chromatography using a PRP-1 column (10×250 mm, Hamilton Company, Reno, Nev.) in 10 mM ammonium acetate pH 5.5 with a gradient of acetonitrile (0-100% over 4 column volumes). CgtB activity assays were done in cell lysates or using purified enzyme in 50 mM MES pH 6.0, 0.5 mM of FCHASE-acceptor (unless otherwise indicated), 10 mM MnCl2, 10 mM DTT, 1 mM UDP-Gal at 37° C. from 5 to 30 minutes. All reactions were stopped by addition of 10 μL of 50% acetonitrile, 10 mM EDTA and 1% SDS and were diluted with H2O to obtain 10-15 μM final concentration of the FCHASE-labeled compounds. The samples were analyzed by capillary electrophoresis as described previously (Wakarchuk, W. W. et al., Methods Mol. Biol. 213:263-274 (2003)) except that a P/ACE MDQ Capillary Electrophoresis System equipped with a Laser module 488 (Beckman Coulter, Calif.) was used. Quantitation of the reactions was performed by integration of the trace peaks using the MDQ 32 Karat software.

[2] = CgtB activity assay (capillary electrophoresis), acceptor GalNAcβ-FCHASE; conditions: for Relative activity (%): GalNAcβ-FCHASE at 0.5 mM, reference (100%) GM2-FCHASE for CgtBOH4384 and CgtB11168, GA2-FCHASE for CgtBHS:10, average of three experiments; for Specific Activity (mU/mg) on a given FCHASE-labeled acceptor: purified enzyme, 3 mM GalNAcβ-FCHASE
Experimental: as §1, with “CgtB activity assays were done in cell lysates or using purified enzyme in 50 mM MES pH 6.0, 0.5 mM of FCHASE-acceptor (unless otherwise indicated), 10 mM MnCl2, 10 mM DTT, 1 mM UDP-Gal at 37° C. from 5 to 30 minutes.” left out

[3] = CgtB activity assay (capillary electrophoresis), acceptor GalNAcα-FCHASE; conditions: for Relative activity (%): GalNAcα-FCHASE at 0.5 mM, reference (100%) GM2-FCHASE for CgtBOH4384 and CgtB11168, GA2-FCHASE for CgtBHS:10, average of two experiments; for Specific Activity (mU/mg) on a given FCHASE-labeled acceptor: purified enzyme, 3 mM GalNAcα-FCHASE
Experimental: as §1, with “CgtB activity assays were done in cell lysates or using purified enzyme in 50 mM MES pH 6.0, 0.5 mM of FCHASE-acceptor (unless otherwise indicated), 10 mM MnCl2, 10 mM DTT, 1 mM UDP-Gal at 37° C. from 5 to 30 minutes.” left out

[4] = tested on: IFNα2b[Tn]-FCHASE; experiment: CgtB activity assay (capillary electrophoresis), glycopeptide acceptor IFNα2b[Tn]-FCHASE; conditions: purified enzyme; 1 mM IFNα2b[Tn]-FCHASE
Experimental: as §1
The IFNα2b protein was purchased from Cell Sciences (Canton, Mass.). […]

[5] = CgtB activity assay (capillary electrophoresis), acceptor lyso-GM2-FCHASE; conditions: lysoGM2-FCHASE at 0.5 mM; reference (100%) GM2-FCHASE for CgtBOH4384 and CgtB11168, GA2-FCHASE for CgtBHS:10; average of three experiments
Experimental: as §1

[6] = CgtB activity assay (capillary electrophoresis), acceptor GA2-FCHASE; conditions: GA2-FCHASE at 0.5 mM; reference (100%) GM2-FCHASE for CgtBOH4384 and CgtB11168, GA2-FCHASE for CgtBHS:10; average of two experiments
Experimental: as §1

Molecule | Relative activity (%) [1] | Specific Activity (mU/mg) on a given FCHASE-labeled acceptor [1] [mU/mg] | Relative activity (%) [2] | Specific Activity (mU/mg) on a given FCHASE-labeled acceptor [2] [mU/mg] | Relative activity (%) [3] | Specific Activity (mU/mg) on a given FCHASE-labeled acceptor [3] | Specific Activity (mU/mg) on a given FCHASE-labeled acceptor [4] [mU/mg] | Relative activity (%) [5] | Relative activity (%) [6]
CJL-10: Full length CgtB β-1,3-galactosyltransferase from C. jejuni OH4384 fused to E. coli MalE (maltose binding protein) at the N-terminus (protein, left off: large carriers) MFKISIILPTYNVEQYIARAIESCINQTFKDIEIIVVDDCGNDNSINIAKEYSKKDKRIKIIHNEKNLGLLRARYEGVKVANSPYIMFLDPDDYLELNACEECIKILDEQDEVDLVFFNAIVESNVISYKKFDFNSGFYSKKEFVKKIIAKKNLYWTMWGKLIRKKLYLEAFASLRLEKDVKINMAEDVLLYYPMLSQAQKIAYMNCNLYHYVPNNNSICNTKNEVLVKNNIQELQLVLNYLRQNYILNKYCSVLYVLIKYLLYIQIYKIKRTKLMVTLLAKINILTLKILFKYKKFLKQC | 100^4% | 210 | 47.5^4% | 192 | 6.4^3% | 158^1 mU/mg | 83.5 | 444^4% | 29^3%
CJL-20: Full length CgtB from C. jejuni NCTC 11168 fused to MalE at the N-terminus (protein, left off: large carriers, Full length CgtB from C. jejuni NCTC 11168 fused to MalE at the N-terminus) MSQISIILPTYNVEKYIARALESCINQTFKDIEIIVVDDCGNDKSIDIAKEYASKDDRIKIIHNEENLKLLRARYEGAKVATSPYIMFLDSDDYLELNACEECIKILDMGGGGKIDLLCFEAFITNAKKSIKKLNIKQGKYNNKEFTMQILKTKNPFWTMWAKIIKKDIYLKAFNMLNLKKEIKINMAEDALLYYPLTILSNEIFYLTQPLYTQHVNSNSITNNINSLEANIQEHKIVLNVLKSIKNKKTPLYFLIIYLLKIQLLKYEQNFNKRNINLIYYKINILYQKYQFKWKKFLYNLIP | 100^4% | 27 | 50.5^4% | 40.4 | 3.0^3% | 13.6 mU/mg | – | 606.2^4% | 8.8^3%

Reference: US8409583B2, “Engineered versions of CgtB (β-1,3 galactosyltransferase) enzymes, with enhanced enzymatic properties” (National Research Council of Canada, priority 2007, dated 2013)
